From PMC10731242, “Macromolecular crowding potently stimulates DNA supercoiling activity of Mycobacterium tuberculosis DNA gyrase” (The Journal of Biological Chemistry, 2023)

Molecular target: T1, Mycobacterium tuberculosis DNA gyrase subunit A (Mycobacterium tuberculosis, UniProt P9WG47 1-838)
T1 construct: also called Mtb GyrA; Mtb gyrase subunit A
Experiment: SEC
Details: both partners purified

T1 sequence (P9WG47 whole entry): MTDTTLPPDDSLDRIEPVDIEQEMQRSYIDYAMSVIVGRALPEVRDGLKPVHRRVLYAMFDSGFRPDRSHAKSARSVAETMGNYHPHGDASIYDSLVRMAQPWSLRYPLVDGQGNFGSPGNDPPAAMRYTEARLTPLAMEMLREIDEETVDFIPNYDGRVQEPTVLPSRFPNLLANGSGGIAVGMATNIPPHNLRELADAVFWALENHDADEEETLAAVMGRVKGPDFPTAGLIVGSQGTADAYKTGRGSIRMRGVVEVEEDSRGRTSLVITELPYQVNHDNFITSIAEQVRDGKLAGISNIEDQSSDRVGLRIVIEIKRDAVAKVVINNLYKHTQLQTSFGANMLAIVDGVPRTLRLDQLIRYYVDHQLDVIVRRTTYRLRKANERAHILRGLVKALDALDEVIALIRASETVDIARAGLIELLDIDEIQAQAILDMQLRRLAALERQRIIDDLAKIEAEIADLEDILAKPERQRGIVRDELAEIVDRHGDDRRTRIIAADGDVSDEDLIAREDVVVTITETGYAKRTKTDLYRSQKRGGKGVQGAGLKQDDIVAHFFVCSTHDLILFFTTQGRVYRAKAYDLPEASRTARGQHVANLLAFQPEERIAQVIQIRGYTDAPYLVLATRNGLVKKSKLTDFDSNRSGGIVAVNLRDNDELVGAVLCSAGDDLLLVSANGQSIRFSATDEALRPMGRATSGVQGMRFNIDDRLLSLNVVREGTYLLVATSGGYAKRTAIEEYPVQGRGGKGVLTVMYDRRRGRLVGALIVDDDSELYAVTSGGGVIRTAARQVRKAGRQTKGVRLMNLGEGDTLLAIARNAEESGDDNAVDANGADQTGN

B1: Mycobacterium tuberculosis DNA gyrase subunit B (enzyme)
chain: MAAQKKKAQDEYGAASITILEGLEAVRKRPGMYIGSTGERGLHHLIWEVVDNAVDEAMAGYATTVNVVLLEDGGVEVADDGRGIPVATHASGIPTVDVVMTQLHAGGKFDSDAYAISGGLHGVGVSVVNALSTRLEVEIKRDGYEWSQVYEKSEPLGLKQGAPTKKTGSTVRFWADPAVFETTEYDFETVARRLQEMAFLNKGLTINLTDERVTQDEVVDEVVSDVAEAPKSASERAAESTAPHKVKSRTFHYPGGLVDFVKHINRTKNAIHSSIVDFSGKGTGHEVEIAMQWNAGYSESVHTFANTINTHEGGTHEEGFRSALTSVVNKYAKDRKLLKDKDPNLTGDDIREGLAAVISVKVSEPQFEGQTKTKLGNTEVKSFVQKVCNEQLTHWFEANPTDAKVVVNKAVSSAQARIAARKARELVRRKSATDIGGLPGKLADCRSTDPRKSELYVVEGDSAGGSAKSGRDSMFQAILPLRGKIINVEKARIDRVLKNTEVQAIITALGTGIHDEFDIGKLRYHKIVLMADADVDGQHISTLLLTLLFRFMRPLIENGHVFLAQPPLYKLKWQRSDPEFAYSDRERDGLLEAGLKAGKKINKEDGIQRYKGLGEMDAKELWETTMDPSVRVLRQVTLDDAAAADELFSILMGEDVDARRSFITRNAKDVRFLDV
notes: also called Mtb GyrB; gyrB
binding result: binds
